Laboratory results: article PMC13507242
Values belong to the substance of their own block, whether it stands above or below them.

Tests used:
[1] = molecular target: CD33^M ectodomain (CD33 ECD), residues 21-232, glycosylated (human); assay: AUC; sedimentation velocity (0.4 mg/ml, 40,000 rpm) and sedimentation equilibrium (0.2, 0.1, 0.05 mg/ml, 16,000 or 20,000 rpm), 20 °C, 20 mM HEPES, 200 mM NaCl, pH 7.5; dimer to monomers
[2] = molecular target: CD33^M ectodomain (CD33^M ECD), residues 21-232, Endo Hf-deglycosylated (human); assay: as above
[3] = molecular target: CD33^M ectodomain (CD33^M ECD), residues 21-232, Endo Hf-deglycosylated (human); assay: SEC-MALS; Superdex 75 10/300 GL, 20 mM HEPES, 200 mM NaCl, pH 7.5; loaded at 100 and 20 µM (<10 and 2 µM on the column); dimer to monomers
[4] = molecular target: endogenous CD33^M of human U937 monocytic cells (human (endogenous in U937))
[5] = molecular target: CD33^M ectodomain (CD33^M ECD), residues 21-232, Endo Hf-deglycosylated (human); assay: BLI; Octet RED384, 30 °C, 20 mM HEPES, 200 mM NaCl, 1 mg/mL casein, pH 7.5; Ni-NTA biosensors loaded with His6 deglycosylated CD33^M ECD WT or R119A; CLU 0.0025-5 µM; steady state (895-900 s), Hill equation; avidity
[6] = molecular target: endogenous CD33^M of human U937 monocytic cells (human (endogenous in U937)); assay: co-IP; U937 cells (endogenous CD33) exposed to CLU (60 nM), desCLU, rCLU or CLU + Aβ; CD33 immunoprecipitated from lysates, blot for CLU
[7] = molecular target: HA-tagged CD33^M (full-length major isoform) expressed in HEK293 / HEK293T cells (human); assay: co-IP; HEK293 / HEK293T cells expressing HA-tagged CD33 incubated with CLU (30 nM in the methods, 60 nM in the results), washed, lysed in 1% CHAPSO/TBS; IP with anti-HA, blot for CLU
[8] = molecular target: CD33^M ectodomain (CD33^M ECD), residues 21-232, Endo Hf-deglycosylated (human); assay: BLI; Octet RED384, 30 °C, 20 mM HEPES, 200 mM NaCl, 1 mg/mL casein, pH 7.5; Ni-NTA biosensors loaded with His6 deglycosylated CD33^M ECD WT or R119A; CLU 0.0025-5 µM; steady state (895-900 s), Hill equation; avidity; remark: listed apart in the source
[9] = molecular target: CD33^M ectodomain (CD33^M ECD), residues 21-232, Endo Hf-deglycosylated (human); assay: MST; Monolith NT.115, 23 °C, deglycosylated CD33 ECD labelled with Alexa Fluor 647; 20 mM HEPES pH 7.5, 150 mM NaCl, 0.05% Tween-20

HA-tagged CD33^M (full-length major isoform) expressed in HEK293 / HEK293T cells (human), sequence (P20138 18-364): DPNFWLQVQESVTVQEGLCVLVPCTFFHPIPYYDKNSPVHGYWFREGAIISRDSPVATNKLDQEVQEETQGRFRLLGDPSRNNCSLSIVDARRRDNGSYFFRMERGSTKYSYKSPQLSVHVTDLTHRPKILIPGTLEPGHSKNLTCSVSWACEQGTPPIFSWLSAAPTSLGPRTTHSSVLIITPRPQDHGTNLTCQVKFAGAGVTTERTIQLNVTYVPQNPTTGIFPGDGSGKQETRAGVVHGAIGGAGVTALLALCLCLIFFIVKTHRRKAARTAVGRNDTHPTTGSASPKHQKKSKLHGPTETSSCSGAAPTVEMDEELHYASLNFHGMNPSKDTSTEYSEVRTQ
endogenous CD33^M of human U937 monocytic cells (human (endogenous in U937)), sequence (P20138 18-364): as above

Kd [1]: 300 nM
Substance: CD33^M ectodomain (CD33 ECD), residues 21-232, glycosylated (domain or fragment)

Kd [2]: 710 nM
Kd [3]: 100 nM
stoichiometry N [3]: 2
Substance: CD33^M ectodomain (CD33^M ECD), residues 21-232, Endo Hf-deglycosylated (domain or fragment)

Substance: CLU + Aβ1-42 oligomers (CLU/Aβ 1-42 mixture) (from UniProt P10909 23-227; P10909 228-449; P05067 672-713) (complex)
CD33 ITIM tyrosine phosphorylation (CD33^M-pTyr) in U937 cells, relative to no treatment (relative to no treatment (1.00)) [4]: 11.9
Kd [5]: 28.2 nM
CD33-bound CLU in the co-IP (panel e) [6]: 1.06
CD33-bound CLU in the co-IP (panel d) [7]: 1.38

Kd [8]: 28.9 nM
Kd [9]: 55.1 nM
CD33 ITIM tyrosine phosphorylation (CD33^M-pTyr) in U937 cells, relative to no treatment (relative to no treatment (1.00)) [4]: 6.28
Kd [5]: 27.9 nM
CD33-bound CLU in the co-IP (panel e) [6]: 1.04
ratio of CLU to CD33 band intensities [6]: 1.23 arb. units
CD33-bound CLU in the co-IP (panel d) [7]: 1.15
ratio of co-precipitated CLU to CD33 band intensities [7]: 0.85 arb. units
ratio of co-precipitated CLU to CD33 band intensities (panel c) [7]: 0.425 arb. units
ratio of co-precipitated CLU to CD33 band intensities, cells expressing CD33^M + CD33^m [7]: 0.45 arb. units
Substance: native sialylated clusterin (CLU) purified from human plasma (from UniProt P10909 23-227; P10909 228-449) (ligand)
